Data published in patent publication US20240400696A1.
Positions count from the first letter of the chain named.

B1: AC3368 (bispecific antibody, V domains shown)
VH: EVQLLESGGGIVQPGGSLKLSCAASGFTFNTYAMNWVRQAPGKGLEEVARIRSKYNNYATYYADSVKDRFTISRDDSKNTVYLQMNNLKTEDTAVYYCVRHENFGNSYVSWFAHWGQGTLVTVSS
VL: ELVVTQEPSLTVSPGGTVTLTCRSSNGAVTSSNYANWVQQKPGQAPRGLIGGTNKRAPGTPARFSGSLLGGKAALTLSGVQPEDEAVYYCALWYPNLWVFGGGTKLTVL
B2: AC3369 (bispecific antibody, V domains shown)
VH: B1 VH with E47W, V48A
VL: B1 VL
B3: AC3370 (bispecific antibody, V domains shown)
VH: B1 VH with E47W, V48E
VL: B1 VL
B4: AC3371 (bispecific antibody, V domains shown)
VH: B1 VH with E47W, V48G
VL: B1 VL
B5: AC3372 (bispecific antibody, V domains shown)
VH: B1 VH with E47W, V48S
VL: B1 VL
B6: AC3373 (bispecific antibody, V domains shown)
VH: B1 VH with E47W, V48T
VL: B1 VL
B7: AC3374 (bispecific antibody, V domains shown)
VH: B1 VH with E47W, V48W
VL: B1 VL
B8: AC3377 (bispecific antibody, V domains shown)
VH: B1 VH with E47W, A49G
VL: B1 VL
B9: AC3383 (bispecific antibody, V domains shown)
VH: B1 VH with E47W, I51A
VL: B1 VL
B10: AC3385 (bispecific antibody, V domains shown)
VH: B1 VH with E47W, I51T
VL: B1 VL
B11: AC3389 (bispecific antibody, V domains shown)
VH: B1 VH with E47W, R52Q
VL: B1 VL
B12: AC3396 (bispecific antibody, V domains shown)
VH: B1 VH with E47W, S53T
VL: B1 VL
B13: AC3397 (bispecific antibody, V domains shown)
VH: B1 VH with E47W, K54P
VL: B1 VL
B14: AC3398 (bispecific antibody, V domains shown)
VH: B1 VH with E47W, Y55A
VL: B1 VL
B15: AC3399 (bispecific antibody, V domains shown)
VH: B1 VH with E47W, Y55R
VL: B1 VL
B16: AC3400 (bispecific antibody, V domains shown)
VH: B1 VH with E47W, Y55G
VL: B1 VL
B17: AC3401 (bispecific antibody, V domains shown)
VH: B1 VH with E47W, Y55K
VL: B1 VL

What follows are binders tested against CD3 (assay: Octet, crude lysate).
CD3, sequence (P07766 23-126): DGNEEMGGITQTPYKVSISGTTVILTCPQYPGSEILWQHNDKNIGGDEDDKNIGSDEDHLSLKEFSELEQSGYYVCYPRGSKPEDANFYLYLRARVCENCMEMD

Compared with B1, B2 is 2.2-fold lower in Kd: 0.0181 µM for the first, 0.0083 µM for the second. The second binds more tightly here.

Going from B3 to B4, the Kd falls from 0.165 µM to 0.0715 µM (2.3-fold).

Going from B5 to B6, the Kd falls from 0.0112 µM to 0.0057 µM (2-fold). The second binds more tightly here.

First: B7
Second: B8
The Kd of the first is 7600-fold higher: 34.3 µM for the first, 0.0045 µM for the second.

Compared with B9, B10 is 2.8-fold lower in Kd: 1.18 µM for the first, 0.425 µM for the second.

Compared with B11, B12 is 90-fold lower in Kd: 0.434 µM for the first, 0.0048 µM for the second. The second binds more tightly here.

Going from B13 to B14, the Kd falls from 0.051 µM to 0.0115 µM (4.4-fold).

Compared with B15, B16 is 5.3-fold higher in Kd: 0.0038 µM for the first, 0.0201 µM for the second.

B17 was tested, and the Kd was 0.0051 µM.
